{"source": "IntAct's records for PubMed 21905166", "parents": {"B1": {"name": "Rab proteins geranylgeranyltransferase component A 1 (Homo sapiens), P24386 (parent)", "chain": "MADTLPSEFDVIVIGTGLPESIIAAACSRSGRRVLHVDSRSYYGGNWASFSFSGLLSWLKEYQENSDIVSDSPVWQDQILENEEAIALSRKDKTIQHVEVFCYASQDLHEDVEEAGALQKNHALVTSANSTEAADSAFLPTEDESLSTMSCEMLTEQTPSSDPENALEVNGAEVTGEKENHCDDKTCVPSTSAEDMSENVPIAEDTTEQPKKNRITYSQIIKEGRRFNIDLVSKLLYSRGLLIDLLIKSNVSRYAEFKNITRILAFREGRVEQVPCSRADVFNSKQLTMVEKRMLMKFLTFCMEYEKYPDEYKGYEEITFYEYLKTQKLTPNLQYIVMHSIAMTSETASSTIDGLKATKNFLHCLGRYGNTPFLFPLYGQGELPQCFCRMCAVFGGIYCLRHSVQCLVVDKESRKCKAIIDQFGQRIISEHFLVEDSYFPENMCSRVQYRQISRAVLITDRSVLKTDSDQQISILTVPAEEPGTFAVRVIELCSSTMTCMKGTYLVHLTCTSSKTAREDLESVVQKLFVPYTEMEIENEQVEKPRILWALYFNMRDSSDISRSCYNDLPSNVYVCSGPDCGLGNDNAVKQAETLFQEICPNEDFCPPPPNPEDIILDGDSLQPEASESSAIPEANSETFKESTNLGNLEESSE", "partner": "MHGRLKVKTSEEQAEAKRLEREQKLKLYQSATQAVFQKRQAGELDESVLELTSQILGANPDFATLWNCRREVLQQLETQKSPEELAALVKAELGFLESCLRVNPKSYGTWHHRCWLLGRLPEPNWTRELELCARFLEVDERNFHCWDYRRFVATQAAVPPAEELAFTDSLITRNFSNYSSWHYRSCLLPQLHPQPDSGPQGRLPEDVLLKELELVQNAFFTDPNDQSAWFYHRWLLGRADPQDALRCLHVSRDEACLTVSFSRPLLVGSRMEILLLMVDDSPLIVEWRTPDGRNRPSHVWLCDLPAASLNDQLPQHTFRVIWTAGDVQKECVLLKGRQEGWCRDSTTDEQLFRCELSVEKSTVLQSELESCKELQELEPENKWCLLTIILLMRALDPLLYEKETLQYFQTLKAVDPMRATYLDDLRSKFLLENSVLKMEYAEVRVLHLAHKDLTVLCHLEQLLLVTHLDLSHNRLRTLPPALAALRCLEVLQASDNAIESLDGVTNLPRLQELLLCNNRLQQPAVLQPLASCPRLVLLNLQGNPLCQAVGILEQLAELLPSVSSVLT"}}, "data": [{"variants_of": "B1", "settings": "with pgta_human RABGGTA", "values": [{"variant": "H507R", "effect of a mutation on the interaction": "disrupting interaction"}]}]}
